Measurements taken from the supplement of paper PMC9170038.

Test system: MS2 coat protein
Experiment: apparent KD of MS2 coat protein; designed switch direction (-1 OFF switch, 1 ON switch): -1; higher = weaker reporter binding
Method in brief: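 Normalised cluster fluorescence was curve-fitted, and each design's median over clusters is its apparent KD. Before this, SNAP-549-labelled MS2 coat protein was titrated from 0.7 or 1.5 nM, doubling to 3 µM, over RNA switches transcribed on Illumina chips by stalled E. coli RNA polymerase. Titrations had no input, 200 uM small-molecule ligand, or an oligonucleotide input, and steps lasted 0.8–1.5 h (lowest) to 10–20 min (highest).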

[1] = Eterna round: R95, input ligand: microRNA oligo, concentration not stated
[2] = input ligand: microRNA oligo, concentration not stated
[3] = Eterna round: R95, input ligand: FMN 200 uM
[4] = Eterna round: R95, input ligand: none

“CCGGAAAGGAAGGAUAUGCUAGACGAGAGUCUAGCAGAAGGUCCUACAUGAGGAUCACCCAUGUGGUCCUCCGG [Mat - Exclusion 6 - Eli Mod - D34] (Eterna round: R97, puzzle: Exclusion 6)” was tested, and the “apparent KD of MS2 coat protein” value (input ligand: FMN 200 uM) was 252 nM and the “apparent KD of MS2 coat protein” value (input ligand: none) was 1270 nM.

“CCGGAAAUGGAGGAUAUAGGAGUCGAUAGACACCUAGAAGGUCAUACAUGAGGAUCACCCAUGUGUCCUACCGG [Fiskers Ex 6 - 79] (puzzle: Exclusion 6)” was tested, and the “apparent KD of MS2 coat protein” value [1] was 12.9 nM.

With “CCGGAACAUGAGGAUCACCCAUGUCAGGAUAUCCCUAAAUCGUCGAUAGACGAUAAAAGGAGAAGGGACACCGG [Mat - Exclusion 1 - Eli Mod - D26] (Eterna round: R97, puzzle: Exclusion 1)” the “apparent KD of MS2 coat protein” value (input ligand: FMN 200 uM) was 19.3 nM and the “apparent KD of MS2 coat protein” value (input ligand: none) was 16.3 nM.

“CCGGCUUAGGAGGAUAUAGGAGUCGAUAGACACCUAGAAGGCCUAACAUGAGGAUCACCCAUGUGUCCUACCGG [Fiskers Ex 6 - 99] (puzzle: Exclusion 6)” was tested, and the “apparent KD of MS2 coat protein” value [1] was 16.3 nM.

In the case of “CCGGUAAAGGAGGAUAUAGGAGUCGAUAGACACCUAGAAGGCCUGACAUGAGGAUCACCCAUGUGUCCUUCCGG [Fiskers Ex 6 - 94] (puzzle: Exclusion 6)”, the “apparent KD of MS2 coat protein” value [1] is reported as 16.8 nM.

For “CCGUUCCGUGUAGGAUAUUGGCCUUCCUCGGGCCGAGAAGGACAUGAGGAUCACCCAUGUAUGCUAUUAUCGCGCGUGGCGCCC [Design 98] (Eterna round: R96, puzzle: Exclusion NG 1)”, the “apparent KD of MS2 coat protein” value (input ligand: FMN 200 uM) was 129 nM, the “apparent KD of MS2 coat protein” value [2] was 32.4 nM and the “apparent KD of MS2 coat protein” value (input ligand: none) was 39.8 nM.

With “CCUAGGUUAGGAUAUCUCGAUGUGGCAAAGGGUCCAUAUCGGGAGAAGGAACAUGAGGAUCACCCAUGUGGAGC [Eternabot (Original) Solution 42] (Eterna round: R97, puzzle: Exclusion 4)” the “apparent KD of MS2 coat protein” value (input ligand: FMN 200 uM) was 159 nM and the “apparent KD of MS2 coat protein” value (input ligand: none) was 57 nM.

In the case of “CCUCAACAGUAGGAUAUCAUAUAACUAUUGUGAUGAGAAGGACUGACAUGAGGAUCACCCAUGUUAACGUGAUA [Exclusion 6 - 5:b] (puzzle: Exclusion 6)”, the “apparent KD of MS2 coat protein” value [1] is reported as 17.3 nM.

“CCUCAACAGUAGGAUAUCAUCAAACUAUUGUGAUGAGAAGGACUGACAUGAGGAUCACCCAUGUUAACGUGAUA [Exclusion 6 - 6:a] (puzzle: Exclusion 6)” was tested, and the “apparent KD of MS2 coat protein” value [3] was 38.9 nM, the “apparent KD of MS2 coat protein” value [1] was 38.4 nM and the “apparent KD of MS2 coat protein” value [4] was 44.9 nM.

With “CCUCAACAUGAGGAUCACCCAUGUAAGGAUAUGUUGCAGAGCCUCGAGGUACCCGUCAACAGAAGGUAUAUAGA [Eternabot (L1) Solution 16] (Eterna round: R97, puzzle: Exclusion 1)” the “apparent KD of MS2 coat protein” value (input ligand: FMN 200 uM) was 45.1 nM and the “apparent KD of MS2 coat protein” value (input ligand: none) was 30.7 nM.

In the case of “CCUCACCGAGGAUAUACAUGAGGAUCACCCAUGUGAUCCUAAGGCUGAUCAAGCCUAUGUAGAAGGCGCAAAUC [salish99_ex3_r4_005] (Eterna round: R97, puzzle: Exclusion 3)”, the “apparent KD of MS2 coat protein” value (input ligand: FMN 200 uM) is reported as 1010 nM and the “apparent KD of MS2 coat protein” value (input ligand: none) is reported as 765 nM.

In the case of “CCUCAGUAAGGAUAUCAGCUUAGGAGGUUGGUAAUGAGAGCUGAGAAGGUACAUGAGGAUCACCCAUGUUAGUU [JL Zatite mod 7] (puzzle: Exclusion 4)”, the “apparent KD of MS2 coat protein” value [1] is reported as 30.2 nM.

In the case of “CCUCAGUCACAGGAUAUGCUCAUCUAAUGAUGAGCAGAAGGGUGAACAUGAGGAUCACCCAUGUUUACGGUGGU [Omei Ex6 E8] (Eterna round: R97, puzzle: Exclusion 6)”, the “apparent KD of MS2 coat protein” value (input ligand: FMN 200 uM) is reported as 122 nM and the “apparent KD of MS2 coat protein” value (input ligand: none) is reported as 328 nM.

For “CCUCCACAGUAGGAUAUCAUCAAACUAUUGUGAUGAGAAGGACUGACAUGAGGAUCACCCAUGUUAACGUGAUG [Mod of Brourd 7 - Jieux - Exclusion 6] (Eterna round: R97, puzzle: Exclusion 6)”, the “apparent KD of MS2 coat protein” value (input ligand: FMN 200 uM) was 25.3 nM and the “apparent KD of MS2 coat protein” value (input ligand: none) was 22.9 nM.

“CCUCCACAUGAGGAUCACCCAUGUCAGGAUAUCGUGUGUUUUUUUUCGGUCUUUCGUGCGAGAAGGGACGUCUG (puzzle: Exclusion 1)” was tested, and the “apparent KD of MS2 coat protein” value [1] was 28.1 nM.

For “CCUCGAAGGCAAGGAUAUCCUACAUUGUUCUGGCCCGGGCAUGCUACAUGAGGAUCACCCAUGUGGGAGAAGGUGCGCCACGGC [Design 30] (Eterna round: R96, puzzle: Exclusion NG 2)”, the “apparent KD of MS2 coat protein” value (input ligand: FMN 200 uM) was 56.7 nM, the “apparent KD of MS2 coat protein” value [2] was 45 nM and the “apparent KD of MS2 coat protein” value (input ligand: none) was 58.3 nM.

For “CCUCGACAUGAGGAUCACCCAUGUGAGGAUAUCAUAUUCAGACGAAAGGUGUUAGAGUUGAGAAGGCGCAUGUU [Eternabot (L1) Solution 51] (Eterna round: R97, puzzle: Exclusion 1)”, the “apparent KD of MS2 coat protein” value (input ligand: FMN 200 uM) was 44.1 nM and the “apparent KD of MS2 coat protein” value (input ligand: none) was 28.3 nM.

“CCUCUACAUGAGGAUCACCCAUGUGAGGAUAUCCUGCGAGGAUCAAAAGAUCCUCGUGGGAGAAGGCAUAUGAU [Omei Ex1 A3] (Eterna round: R97, puzzle: Exclusion 1)” was tested, and the “apparent KD of MS2 coat protein” value (input ligand: FMN 200 uM) was 36.5 nM and the “apparent KD of MS2 coat protein” value (input ligand: none) was 26.6 nM.

“CCUCUACAUGAGGAUCACCCAUGUGAGGAUAUGCGAGGCGCACUCGAUGAGCGCGCCGGUAGAAGGCAUGUGGU [Raraveries] (Eterna round: R96, puzzle: Exclusion 1)” was tested, and the “apparent KD of MS2 coat protein” value (input ligand: FMN 200 uM) was 67 nM, the “apparent KD of MS2 coat protein” value [2] was 29.8 nM and the “apparent KD of MS2 coat protein” value (input ligand: none) was 41.9 nM.

In the case of “CCUCUACAUGAGGAUCACCCAUGUGAGGAUAUGUUGACGAGCCUGAAAAGGCUGGUCAACAGAAGGCAUAUGUA [Exclusion 1 (Mod 2 solution 16 by Eternabot)] (Eterna round: R97, puzzle: Exclusion 1)”, the “apparent KD of MS2 coat protein” value (input ligand: FMN 200 uM) is reported as 40.3 nM and the “apparent KD of MS2 coat protein” value (input ligand: none) is reported as 18.9 nM.

In the case of “CCUGUACAUGAGGAUCACCCAUGUUAGGAUAUCUCGCCGUCGGCUUGCCGACGGUAUUAGAGAAGGGACAAGGG [JL Tixe mod 4] (puzzle: Exclusion 1)”, the “apparent KD of MS2 coat protein” value [1] is reported as 31 nM.

For “CCUGUGUAAGGAUAUGCCUGGCCGUGAGGCCAGAUUGAAUAGCAGAAGGUACAUGAGGAUCACCCAUGUACGGG [jl-ex4-4.61 ViennaUCT mod] (Eterna round: R97, puzzle: Exclusion 4)”, the “apparent KD of MS2 coat protein” value (input ligand: FMN 200 uM) was 206 nM and the “apparent KD of MS2 coat protein” value (input ligand: none) was 32.9 nM.

For “CCUUAACAUGAGGAUCACCCAUGUGAGGAUAUGAUGCAGCAGUGGUCUACGCUGUGCAUCAGAAGGUACAUGGU (Eterna round: R96, puzzle: Exclusion 1)”, the “apparent KD of MS2 coat protein” value (input ligand: FMN 200 uM) was 291 nM, the “apparent KD of MS2 coat protein” value [2] was 35.9 nM and the “apparent KD of MS2 coat protein” value (input ligand: none) was 44.5 nM.

“CCUUAACAUGAGGAUCACCCAUGUGAGGAUAUGAUGCAGCAGUGGUCUACGCUGUGCAUCAGAAGGUACAUGGU (puzzle: Exclusion 1)” was tested, and the “apparent KD of MS2 coat protein” value [1] was 38.9 nM.

In the case of “CGAAAUGCCCGUGGCCACAAGCUUUUUGCUUGUCUUACUACAUGAGGAUCACCCAUGUACCAUGGGCUCCUGACCAU [Rixele] (puzzle: Sensor v3, turn-off variant 2)”, the “apparent KD of MS2 coat protein” value [3] is reported as 13.6 nM, the “apparent KD of MS2 coat protein” value [1] is reported as 11.6 nM and the “apparent KD of MS2 coat protein” value [4] is reported as 11.2 nM.

“CGACGUGGAGUGAGGAUAUCGUGUUCGAAAGAACGUGAGAAGGCACAUGAGGAUCACCCAUGUGAUUCACGUCG [Omei Ex4B A5] (Eterna round: R97, puzzle: Brourd's mod of Exclusion 4)” was tested, and the “apparent KD of MS2 coat protein” value (input ligand: FMN 200 uM) was 27.7 nM and the “apparent KD of MS2 coat protein” value (input ligand: none) was 20.6 nM.

For “CGAUAAAAGACAGGAUAUGAGGAGAGAGAGAGAUCAGAAGGGUCACAUGAGGAUCACCCAUGUGAGUUCUCGAUAAGAAAGAGG [Prohibition 52 - Jieux - Exclusion NG 1] (Eterna round: R96, puzzle: Exclusion NG 1)”, the “apparent KD of MS2 coat protein” value (input ligand: FMN 200 uM) was 19.3 nM, the “apparent KD of MS2 coat protein” value [2] was 14.6 nM and the “apparent KD of MS2 coat protein” value (input ligand: none) was 21 nM.

With “CGAUAGAUAGGAUAUAUAAUUGGAAUUCACCUUGGGCGGCUACAUGAGGAUCACCCAUGUAGAAGGGUCUUCGA [Eternabot (L1) Solution 80] (Eterna round: R97, puzzle: Exclusion 2)” the “apparent KD of MS2 coat protein” value (input ligand: FMN 200 uM) was 16.3 nM and the “apparent KD of MS2 coat protein” value (input ligand: none) was 18.5 nM.

With “CGAUGACCGGUGAGGAUAUCGUGUUCGAAAGAACGUGAGAAGGCACAUGAGGAUCACCCAUGUGAUCCUCAUCG [Omei Ex4B A33] (Eterna round: R97, puzzle: Brourd's mod of Exclusion 4)” the “apparent KD of MS2 coat protein” value (input ligand: FMN 200 uM) was 25.9 nM and the “apparent KD of MS2 coat protein” value (input ligand: none) was 18.2 nM.

“CGAUGACGAGUGAGGAUAUCGUGUUCGAAAGAACGUGAGAAGGCACAUGAGGAUCACCCAUGUGAUCCUCAUCG [Omei Ex4B A26] (Eterna round: R97, puzzle: Brourd's mod of Exclusion 4)” was tested, and the “apparent KD of MS2 coat protein” value (input ligand: FMN 200 uM) was 708 nM and the “apparent KD of MS2 coat protein” value (input ligand: none) was 57.1 nM.

“CGAUGUCUUCGGACAUCGAACAUGAGGAUCACCCAUGUAUAGAGCAGAUCUUCAUGCAAGCUUUUUGCUCGUCUUAU [Sensor v3 - turn-off variant 1 - 47] (puzzle: Sensor v3, turn-off variant 1)” was tested, and the “apparent KD of MS2 coat protein” value [3] was 84.7 nM, the “apparent KD of MS2 coat protein” value [1] was 14.6 nM and the “apparent KD of MS2 coat protein” value [4] was 90.4 nM.

In the case of “CGCAACACAUGAGGAUCAAACAUGAGGAUCACCCAUGUAUAACAAGCUUUUUGCUCGUCUUAUAAAUAUGUGUUGCG [Electric Eye 2 - Jieux - Sensor, turn-off variant 1] (Eterna round: R97, puzzle: Sensor, turn-off variant 1)”, the “apparent KD of MS2 coat protein” value (input ligand: FMN 200 uM) is reported as 16.9 nM and the “apparent KD of MS2 coat protein” value (input ligand: none) is reported as 9.13 nM.
